# Assay results taken from article PMC3144224, “Control of Gene Expression by the Retinoic Acid-Related Orphan Receptor Alpha in HepG2 Human Hepatoma Cells”.
# T1: RORα1 (NR1F1) (human, UniProt P35398 1-523)
# T1 sequence: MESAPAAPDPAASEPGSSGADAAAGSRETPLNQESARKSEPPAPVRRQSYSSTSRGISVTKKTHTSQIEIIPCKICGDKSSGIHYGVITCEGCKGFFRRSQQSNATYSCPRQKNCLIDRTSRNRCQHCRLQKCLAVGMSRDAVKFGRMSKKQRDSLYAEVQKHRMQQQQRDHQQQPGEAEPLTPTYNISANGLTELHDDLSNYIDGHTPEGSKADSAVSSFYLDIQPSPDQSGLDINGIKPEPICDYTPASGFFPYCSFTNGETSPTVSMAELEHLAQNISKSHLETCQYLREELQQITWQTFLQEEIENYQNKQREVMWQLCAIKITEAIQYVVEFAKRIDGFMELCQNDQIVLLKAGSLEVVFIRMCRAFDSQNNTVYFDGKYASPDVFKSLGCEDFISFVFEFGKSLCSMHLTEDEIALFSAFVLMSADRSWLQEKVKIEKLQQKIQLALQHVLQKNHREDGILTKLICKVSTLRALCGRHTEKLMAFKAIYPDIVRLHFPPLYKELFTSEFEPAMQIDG
# B1: SPARC-RORE (dsDNA)
# DNA 1: CGGTAGGCTGTTCTGGGTCATCCCTCCAGG
# DNA 2: ACGTCCTGGAGGGATGACCCAGAACAGCCT
# Target: T1, RORα1 (NR1F1)
# Assay: EMSA; 15 mM Tris-HCl pH 7.5, 50 mM KCl, 15 mM NaCl, 1 mM MgCl2, 0.03 mM EDTA, 1 mM DTT, 7% glycerol, 50 ng poly(dI-dC), 50 ng unspecific ss oligonucleotides, 0.15 ng
# Conditions: protein: ivt; label: 32P (Klenow fill-in, [α-32P]-dATP) when used as probe
binder,measurement,value
B1,binding result,binds
